One may read the EC50 as the midpoint of the concentration-response curve. One may read the Kd as a measure of binding affinity in units of concentration. In general, koff refers to a measure of how fast the partners let go of each other. Read a high koff as fast dissociation. Usually kon stands for a measure of how fast the partners come together. A higher kon goes with faster complex formation.

Positions count from the first letter of the chain named.

Experiment [1] has as its target T1, Folate receptor alpha (FOLR1) (human, UniProt P15328 25-234, limits assumed).
T1 construct: Antigen printed simply as FOLR1 for the panning, the clone ELISA and the SPR chip; also called human FOLR1; folate receptor-α
The experiment in a line: SPR, Biacore3000, FOLR1 immobilised; the parent is the reference. The protocol:
(§1) To measure the binding affinity of the selected clone for FOLR1, SPR measurement was performed using a Biacore3000. Before each sample was loaded, a CM5 sensor chip was activated with 0.1 M NHS/0.4 M EDC, and then FOLR1 (20 μg/mL in 10 mM acetate, pH 5.0) was immobilized thereon. Then, unreacted NHS was deactivated with 1 M ethanolamine. 250 μL of each sample was prepared at concentrations of 1, 2, 5, 10, 20 and 40 nM, and association and dissociation sensorgrams were obtained while each sample was flushed at 30 μl/min. The sensor chip was regenerated with 10 mM glycine (pH 2.1). The obtained sensorgrams were analyzed using the BIAevaluation software, and the KD values were calculated.
(§2) To measure the binding affinity of the modified antibody vAb1 produced in Example 2 for FOLR1, an SPR assay was performed using a Biacore3000, in the same manner as described in Examples 1-5. The sensorgram was analyzed using the BIAevaluation software, and the KD value was calculated. […] This value is similar to the relative ratio of the values obtained using ELISA.

The target of experiment [2] is T2, FOLR1-Fc (UniProt P15328 25-234, limits assumed).
T2 construct: also called FOLR1 (ELISA coating); not shown: Fc part
The experiment in a line: ELISA, FOLR1-Fc coated, antibody titrated (experiment with vAb3, vAb4, vAb5). The protocol:
(§3) For the purpose of comparing the binding affinities of the primarily selected clones with each other, ELISA was performed at different clone concentrations in the following manner. 25 μL of FOLR1 was added to each well of a 96-well plate at a concentration of 1 μg/mL, coated on the plate at room temperature for 1 hour, and then blocked with 180 μL of 3% skim milk at room temperature for 1 hour. During blocking, samples to be used as primary antibodies were prepared. As primary antibodies, samples selected by screening were used. The samples were diluted to a concentration of 0.1 to 100 nM (0, 0.1, 0.3, 1, 3, 10, 30, and 100 nM) and cold-stored until use. After blocking, 3% skim milk was removed, and 25 μL of the primary antibody was added to each well and allowed to react at room temperature for 1 hour or more. After completion of the reaction, each well was washed three times with PBS-Tween20 (0.1%) buffer. […] After about 5 minutes, 25 μL of 1 M H₂SO₄ was added to each well to stop the reaction, and the absorbance at a wavelength of 450 nm was measured. From the measurement results, the EC (Effector concentration) value was calculated using the GraphPad Prism 7 program.
(§4) The measured values are obtained in different experiments for comparison with the parent antibody.
For orientation: In an ELISA, binding on a coated surface is turned into a signal by an enzyme label.

The target in experiment [3] is T2, FOLR1-Fc. In words: ELISA, FOLR1-Fc coated (experiment with vAb1); the parent is the reference.
Experiment [4] deals with T2, FOLR1-Fc. In words: ELISA, FOLR1-Fc coated (experiment with vAb3, vAb4, vAb5); the parent is the reference. The protocol: as §3, §4
Experiment [5] deals with T2, FOLR1-Fc. The experiment in a line: ELISA, FOLR1-Fc coated (experiment with vAb2); the parent is the reference.
In experiment [6] the target is T2, FOLR1-Fc. In words: ELISA, FOLR1-Fc coated, antibody titrated (experiment with vAb2). The protocol:
as §3, §4

The target in experiment [7] is T2, FOLR1-Fc. The experiment in a line: ELISA, FOLR1-Fc coated, antibody titrated (experiment with vAb1). The method, then:
as §3, §4

Experiment [8] addresses T1, Folate receptor alpha (FOLR1). The experiment in a line: SPR, Biacore3000, FOLR1 immobilised on CM5 chip, antibody as analyte. The method, then:
as §1, §2

Experiment [9] has as its target T2, FOLR1-Fc. In words: ELISA, FOLR1-Fc coated, antibody titrated. The method, then:
(§5) For the purpose of comparing the binding affinities of the primarily selected clones with each other, ELISA was performed at different clone concentrations in the following manner. 25 μL of FOLR1 was added to each well of a 96-well plate at a concentration of 1 μg/mL, coated on the plate at room temperature for 1 hour, and then blocked with 180 μL of 3% skim milk at room temperature for 1 hour. During blocking, samples to be used as primary antibodies were prepared. As primary antibodies, samples selected by screening were used. The samples were diluted to a concentration of 0.1 to 100 nM (0, 0.1, 0.3, 1, 3, 10, 30, and 100 nM) and cold-stored until use. After blocking, 3% skim milk was removed, and 25 μL of the primary antibody was added to each well and allowed to react at room temperature for 1 hour or more. After completion of the reaction, each well was washed three times with PBS-Tween20 (0.1%) buffer. As a secondary antibody, HA-HRP was diluted 3,000-fold with 3% skim milk, and 25 μL of the dilution was added to each well and allowed to react at room temperature for 1 hour or more. After completion of the reaction, each well was washed three times with PBS-Tween20 (0.1%), and 25 μL of substrate TMB was added to each well to confirm color development. After about 5 minutes, 25 μL of 1 M H₂SO₄ was added to each well to stop the reaction, and the absorbance at a wavelength of 450 nm was measured. From the measurement results, the EC (Effector concentration) value was calculated using the GraphPad Prism 7 program.
as §4

In experiment [10] the target is T1, Folate receptor alpha (FOLR1). In words: SPR, Biacore3000, FOLR1 immobilised. The protocol: as §1, §2
The target of experiment [11] is T2, FOLR1-Fc. The experiment in a line: ELISA, FOLR1-Fc coated. The protocol: as §5, §4

T1 sequence (P15328 25-234 limits assumed): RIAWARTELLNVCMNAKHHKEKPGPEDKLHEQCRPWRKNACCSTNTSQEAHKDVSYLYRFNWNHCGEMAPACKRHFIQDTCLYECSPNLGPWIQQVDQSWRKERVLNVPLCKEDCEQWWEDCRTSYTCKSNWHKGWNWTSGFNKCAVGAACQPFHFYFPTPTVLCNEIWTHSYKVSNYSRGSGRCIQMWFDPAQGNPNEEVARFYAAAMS
T2 sequence (P15328 25-234 limits assumed): as above

B1: Parent antibody (anti-FOLR1 antibody of US2005/0232919 A1) (antibody, V domains shown)
VH: EVQLVESGGGVVQPGRSLRLSCSASGFTFSGYGLSWVRQAPGKGLEWVAMISSGGSYTYYADSVKGRFAISRDNAKNTLFLQMDSLRPEDTGVYFCARHGDDPAWFAYWGQGTPVTVSS
VL: DIQLTQSPSSLSASVGDRVTITCSVSSSISSNNLHWYQQKPGKAPKPWIYGTSNLASGVPSRFSGSGSGTDYTFTISSLQPEDIATYYCQQWSSYPYMYTFGQGTKVEIK
notes: also called WT
As for B1, the “Relative Potency” value (in experiment [1]; in the experiment with FOLR1-Fc [3]; in the experiment with FOLR1-Fc [4]; with FOLR1-Fc [5]) was 1 fold (reference) in each case. Also, the values for the EC50 with FOLR1-Fc [2], with FOLR1-Fc [6] and in the experiment with FOLR1-Fc [7] were 3.04 ng/mL, 11.8 ng/mL and 11 ng/mL, respectively. Also, the Ka in experiment [8] was 1.05e+09 M⁻¹. The same molecule came in with a Kd in [8] of 0.96 nM. This molecule also displayed a koff in experiment [8] of 0.000401 s⁻¹. The same molecule showed a kon in [8] of 419000 M⁻¹ s⁻¹.

B2: Modified antibody vAb1 (antibody, V domains shown)
VH: B1 VH with P103V
VL: B1 VL with V25A, S28G, I29L, N32S, N33Y, N54S, L55R
notes: Carries modified CDR-H3, CDR-L1 and CDR-L2
Regarding B2, the EC50 with FOLR1-Fc [9] was 2.45 ng/mL. In addition, in experiment [10], the “Relative Potency” value was 4 fold against parent antibody. In the experiment with FOLR1-Fc [11], the “Relative Potency” value was 4.48 fold against parent antibody. Also, in experiment [8], the Ka was found to be 4.17e+09 M⁻¹, the Kd came to 0.24 nM, the koff worked out at 0.000147 s⁻¹ and the kon was 612000 M⁻¹ s⁻¹.
